The record followed here is PMC5389651.

Assay in all cases: fluorescence polarization; 150 mM NaCl; 50 mM HEPES pH 7.5, 150 mM NaCl (250 mM in one row), room temperature, 40 min, 9 nM RNA
One series addresses T1, Nop15 81-220 (Saccharomyces cerevisiae, UniProt P53927 81-220).
T1 sequence: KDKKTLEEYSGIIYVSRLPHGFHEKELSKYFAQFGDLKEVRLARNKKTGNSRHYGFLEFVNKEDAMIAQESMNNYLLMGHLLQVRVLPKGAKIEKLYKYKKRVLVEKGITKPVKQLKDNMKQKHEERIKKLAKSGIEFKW

A further series has as its target T2, Nop15 81-180 (Saccharomyces cerevisiae, UniProt P53927 81-180).
T2 sequence: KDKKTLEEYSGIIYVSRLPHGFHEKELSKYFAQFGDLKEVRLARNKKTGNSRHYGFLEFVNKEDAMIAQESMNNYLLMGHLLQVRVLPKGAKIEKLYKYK

The target of another series is T3, Nop15 (Saccharomyces cerevisiae, UniProt P53927 1-220).
T3 sequence: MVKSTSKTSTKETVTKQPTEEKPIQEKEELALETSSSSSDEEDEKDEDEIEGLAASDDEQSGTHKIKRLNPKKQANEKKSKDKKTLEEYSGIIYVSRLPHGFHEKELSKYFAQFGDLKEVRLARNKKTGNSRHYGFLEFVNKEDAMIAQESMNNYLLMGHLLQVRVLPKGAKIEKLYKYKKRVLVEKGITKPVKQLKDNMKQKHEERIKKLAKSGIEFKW

The target of another series is T4, Nop15 81-191 (Saccharomyces cerevisiae, UniProt P53927 81-191).
T4 sequence: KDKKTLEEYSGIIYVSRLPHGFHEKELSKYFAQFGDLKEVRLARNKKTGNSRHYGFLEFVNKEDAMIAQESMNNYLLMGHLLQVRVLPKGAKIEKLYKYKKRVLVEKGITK

B1: ITS2 26-60 upper (structured_RNA)
RNA: UGAGUGAUCAACUUUGGUUGUAACUUGAAAUUGCU
As to B1, the affinity with Nop15 81-220, expressed as Kd, was 44.9 ± 4.3 nM.

B2: ITS2 26-60 WT (structured_RNA)
RNA: UGAGUGAUACUCUUUGGAGUUAACUUGAAAUUGCU
Regarding B2, the Kd (as a rule, the free concentration of one partner at which half of the binding sites on the other are occupied at equilibrium, for simple one-to-one binding) with Nop15 81-180 turned out to be 1050 ± 111 nM; in the series with Nop15 81-220, 35.4 ± 1.3 nM; in the series with Nop15, 293 ± 23 nM; with Nop15 81-191 it was 209 ± 15 nM.

B3: ITS2 26-60 lower1 (structured_RNA)
RNA: UGACAGAUACUCUUUGGAGUUAUGUUGAAAUUGCU
Turning to B3, binding in the series with Nop15 81-220 was put at a Kd of 52.1 ± 3.6 nM.

B4: ITS2 26-60 disrupted lower (structured_RNA)
RNA: UCUGUGAUACUCUUUGGAGUUAACUUGAAAUUGCU
For the molecule B4, in the series with Nop15 81-220, the Kd turned out to be 144 ± 16 nM.

B5: ITS2 26-60 disrupted upper (structured_RNA)
RNA: UGAGUGAUCAUCUUUGGAGUUAACUUGAAAUUGCU
For B5, in the series with Nop15 81-220, the Kd is 35.5 ± 3.2 nM.

B6: ITS2 26-60 lower2 (structured_RNA)
RNA: UUUGUGAUACUCUUUGGAGUUAACAGGAAAUUGCU
In the series with Nop15 81-220, B6 returned a Kd of 39.3 ± 2.7 nM.

B7: ITS2 26-51 (structured_RNA)
RNA: UGAGUGAUACUCUUUGGAGUUAACUU
Molecule B7 returned a Kd with Nop15 81-220 of 104 ± 3.6 nM.

B8: ITS2 26-60 paired (structured_RNA)
RNA: UGAGUGAUACUCUUUGGAGUAUCACUUGAAAUUGCU
B8 gave a Kd with Nop15 81-220 of 89 ± 8.9 nM.

B9: ITS2 26-60 bulge (structured_RNA)
RNA: UGAGUCUAACUCUUUGGAGUAUACUUGAAAUUGCU
As to B9, in the series with Nop15 81-220, the Kd is 73.6 ± 5.6 nM.
